One protein from article doi:10.1101/2025.11.27.690710, “Direct recruitment of RNA Polymerase II by NANOG to activated target genes” (bioRxiv, 2025) can be followed below.

This data set deals with the molecule itself. The experiment in a line: BASIL (Bead Assay of Interacting Ligands); biotinylated oligonucleotide with a single NANOG site on streptavidin beads, incubated with rNANOG at 1mg/ml for 1 hour, washed, then with fluorescein amidite labelled oligonucleotide of the same sequence; fluorescence on the bead only if NANOG is a multimer.

B1: Recombinant full length NANOG, purified and refolded (natural protein, mouse, UniProt Q80Z64 1-305, looked up)
chain: MSVGLPGPHSLPSSEEASNSGNASSMPAVFHPENYSCLQGSATEMLCTEAASPRPSSEDLPLQGSPDSSTSPKQKLSSPEADKGPEEEENKVLARKQKMRTVFSQAQLCALKDRFQKQKYLSLQQMQELSSILNLSYKQVKTWFQNQRMKCKRWQKNQWLKTSNGLIQKGSAPVEYPSIHCSYPQGYLVNASGSLSMWGSQTWTNPTWSSQTWTNPTWNNQTWTNPTWSSQAWTAQSWNGQPWNAAPLHNFGEDFLQPYVQLQQNFSASDLEVNLEATRESHAHFSTPQALELFLNYSVTPPGEI
notes: NANOG, mouse, full length; Forms multimers by the BASIL assay; the size of the oligomer is not measured here; also called purified NANOG; rNANOG
For B1, the binding result is on record as “binds”.
